Laboratory results from US20250145689A1 (CIRCULAR COMMITMENT, published 2025).
Blank lines part the entries; values can stand above or below the molecule they belong to.

Columns and labels:
[1] = biological target: Recombinant water soluble mouse PLVAP (extracellular domain, residues 48-438) (mouse) (UniProt Q91VC4); test: told in the legend of the competitive ELISA; method of the comparison not stated
[2] = biological target: Recombinant water soluble mouse PLVAP (extracellular domain, residues 48-438) (mouse) (UniProt Q91VC4); test: Scatchard analysis; plate-coated recombinant mouse PLVAP, bound Fab-TF measured by chromogenic TF activity; mean ± SD of 6 batches
[3] = biological target: Recombinant water soluble mouse PLVAP (extracellular domain, residues 48-438) (mouse) (UniProt Q91VC4); test: competitive ELISA on plate-coated mouse PLVAP; competitor biotinylated MECA32 mAb
[4] = biological target: T1, Recombinant water soluble mouse PLVAP (extracellular domain, residues 48-438) (mouse, UniProt Q91VC4 48-438); test: ELISA on plate-coated mouse PLVAP, detected with biotinylated anti-hTF antibody
T1 construct: The cDNA clone (Invitrogen) is not tied to NP_115774.2 in words; His-tag not reported as removed; also called mPLVAP; His-mPLVAP; not shown: His-tag of the pET-15b vector
T1 sequence: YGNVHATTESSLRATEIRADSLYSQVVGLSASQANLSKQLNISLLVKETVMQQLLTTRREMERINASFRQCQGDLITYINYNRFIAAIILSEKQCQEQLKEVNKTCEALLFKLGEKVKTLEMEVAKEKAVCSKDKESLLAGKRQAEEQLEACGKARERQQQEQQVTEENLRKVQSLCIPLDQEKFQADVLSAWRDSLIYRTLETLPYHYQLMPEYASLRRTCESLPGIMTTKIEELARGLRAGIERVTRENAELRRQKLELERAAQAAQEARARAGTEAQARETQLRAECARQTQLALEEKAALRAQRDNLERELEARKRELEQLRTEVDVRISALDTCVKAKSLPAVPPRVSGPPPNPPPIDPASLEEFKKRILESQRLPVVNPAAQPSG

[5] = biological target: T2, Recombinant water soluble human PLVAP (extracellular domain, residues 51-442) (human) (UniProt Q9BX97); test: Scatchard analysis; plate-coated recombinant human PLVAP, bound Fab-TF measured by chromogenic TF activity; mean ± SD of 3 batches
T2 sequence: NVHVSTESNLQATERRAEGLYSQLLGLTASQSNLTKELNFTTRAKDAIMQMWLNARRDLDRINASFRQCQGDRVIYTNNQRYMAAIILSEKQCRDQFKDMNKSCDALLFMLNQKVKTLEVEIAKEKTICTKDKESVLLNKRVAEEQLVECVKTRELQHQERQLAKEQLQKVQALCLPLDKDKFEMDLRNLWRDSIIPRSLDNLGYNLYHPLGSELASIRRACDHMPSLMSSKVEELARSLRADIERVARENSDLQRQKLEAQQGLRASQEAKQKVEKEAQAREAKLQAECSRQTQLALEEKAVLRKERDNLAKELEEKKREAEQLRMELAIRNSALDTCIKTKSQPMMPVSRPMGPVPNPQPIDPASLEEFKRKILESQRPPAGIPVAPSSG

binding affinity against MECA32 mAb [1]: 1 log lower
Kd [2]: 0.0572 µM
Molecule: Fab fragment of MECA32 anti-mouse PLVAP monoclonal antibody co-expressing human tissue factor

potency in competition against MECA32-Fab-TF [3]: 1 log
Molecule: Rat anti-mouse PLVAP MECA32 monoclonal antibody

binding result [4]: no binding
B1: Soluble human tissue factor without antibody (other)
chain: SGTTNTVAAYNLTWKSTNFKTILEWEPKPVNQVYTVQISTKSGDWKSKCFYTTDTECDLTDEIVKDVKQTYLARVFSYPAGNVESTGSAGEPLYENSPEFTPYLETNLGQPTIQSFEQVGTKVNVTVEDERTLVRRNNTFLSLRDVFGKDLIYTLYYWKSSSSGKKTAKTNTNEFLIDVDKGENYCFSVQAVIPSRTVNRKSTDSPVECMGQEKGEFRE
notes: also called hTF; control soluble hTF

Kd [5]: 0.0307 µM
B2: Recombinant Fab fragment of CSRO2 anti-human PLVAP monoclonal antibody co-expressing water-soluble human tissue factor (Fab, part only; not given: Humanized CSRO2 kappa light chain, part only)
heavy: MQVQLVQSGSELKKPGASVKVSCKASGYTFTSNYINWVRQAPGQGLEWMGNIYPSDGFTNYNQKFKDRVTITVDKSTSTAYMELSSLRSEDTAVYYCTRNFDVWGQGTTVTVSSASTKGPSVFPLAPCSRSTSESTAALGCLVKDYFPEPVTVSWNSGALTSGVHTFPAVLQSSGLYSLSSVVTVPSSSLGTKTYTCNVDHKPSNTKVDKRVESKYGPPCPSCPGGGGSGGGGSGGGGSSGTTNTVAAYNLTWKSTNFKTILEWEPKPVNQVYTVQISTKSGDWKSKCFYTTDTECDLTDEIVKDVKQTYLARVFSYPAGNVESTGSAGEPLYENSPEFTPYLETNLGQPTIQSFEQVGTKVNVTVEDERTLVRRNNTFLSLRDVFGKDLIYTLYYWKSSSSGKKTAKTNTNEFLIDVDKGENYCFSVQAVIPSRTVNRKSTDSPVECMGQEKGEFRE
